# Results reported in article PMC9481708.
# Target: And-1 HMG domain (UniProt O75717)
# Experiment: FLAG-SepB IP, GST-HMG blot
# Details: reference: wild-type SepB; sites T826
# UniProt O75717, sequence (O75717 330-984 T826A): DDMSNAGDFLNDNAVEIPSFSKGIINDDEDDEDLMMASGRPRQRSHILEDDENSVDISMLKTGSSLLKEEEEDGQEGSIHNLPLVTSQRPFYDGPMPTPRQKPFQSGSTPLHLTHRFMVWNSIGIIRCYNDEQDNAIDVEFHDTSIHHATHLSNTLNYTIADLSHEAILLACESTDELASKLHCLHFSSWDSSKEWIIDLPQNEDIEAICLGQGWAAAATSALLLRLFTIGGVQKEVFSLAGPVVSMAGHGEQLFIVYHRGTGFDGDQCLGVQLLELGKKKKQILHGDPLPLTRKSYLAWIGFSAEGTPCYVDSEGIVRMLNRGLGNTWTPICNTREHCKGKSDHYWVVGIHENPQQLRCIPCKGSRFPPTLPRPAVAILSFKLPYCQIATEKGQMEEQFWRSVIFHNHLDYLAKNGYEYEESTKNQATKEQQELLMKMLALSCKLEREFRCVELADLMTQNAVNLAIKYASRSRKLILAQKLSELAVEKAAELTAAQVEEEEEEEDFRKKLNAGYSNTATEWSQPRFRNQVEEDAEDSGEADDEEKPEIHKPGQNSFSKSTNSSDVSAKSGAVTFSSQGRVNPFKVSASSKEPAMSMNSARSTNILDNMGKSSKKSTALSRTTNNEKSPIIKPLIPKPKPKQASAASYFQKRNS
substance,measurement,value
"And-1 SepB domain, 330-984 (from UniProt O75717) SepB T826A",binding against the reference,stronger
